Results published in the DeepSol protein solubility set.

Assay: soluble on expression in E. coli; label from the status in PepcDB or PDB records

Sequence | soluble on expression in E. coli
MIAATPQAMDKQPSAKNQPCGIDKEVGTIANTVITLMPKYIDTNVIVLRHSCANRPPWRNAATNHANNPRNPSKNSTDITTPIDAAISGTACPFIRFSNSAIN | not soluble
MIAEQHQAVVDSGASKKGAKVGFVSLGCPKNLVDSERILTQLRTEGYDVTNSYDDAELVIVNTCGFIDSAVQESLDTIGEALAANGKVLVTGCLGVKKDEIIELHPNVLGVTGPHAYDEVLAQVHEHVAKPEHNPFIDLVPPQGVKLTPKHYAYLKISEGCNHRCTFCIIPSMRGDLDSRPVGDVLGEAKRLVDSGVKELLVISQDTSAYGVDVKHKTDFWDGMPVKTHMQQLCEELAKQGVWIRLHYVYPYPHVDKIIPLMAEGKILPYLDIPFQHANKRILKLMKRPGSSDRVLERIAKWREICPELVIRSTFIVGFPGETEEEFEELLNFLEEAQLDRVGCFKYSPVEGATANALPDHVSDEVMEDRLQRFMAVQAKISSDKLQVRIGQEYLILVDEVNGLGIVGRSYMDAPEVDGKVYLSDDYDAKPGDQIWVQIIHADEHDVWGVRVED | soluble
MIARLAIAALLVSSSLACLPGLGGLGGGCGGAAASPCAAPPMPPPVSCGGGCGAAPYPAGPMAAPYFAPAAIAPPPPPQGAVIGVGAQPAVYSAPLPAGNAYVGQGK | not soluble
MIATYNTNVGDVLMLITANDKGEKVNFERKGKVARVFIEETGATVAWNIFEAKSLLANLSGNGQVVLSSDDIETLNKELGKSGFSDVLVHDAQPKFVVAEIVEMEDHPDSDHLHICKVNVGFADPVQIVCGAPNAALGLKTVAALPGAMMPNGSLIFPGALRGVQSYGMLCSARELELPNAPEVRGIIELSSDLSAGKAFDSETMWQALEHHHHHH | soluble
MIDDRQEEKMIKENVYFDGNVKSLGFSQQDGESTVGVMAPGQYTFGTGAPERMTVVKGALTIKRVTDADWVTFTAGEAFEVAGNSSFDLQVEVATAYLCEFLPA | not soluble
MIDEWPVPTAAAAVIGPSGVLATHGDDAKPFALASVTKLLVARAAQVAIEEGVVELDTPAGPDGSTVRHLLAHTSGVAMNSADTVAQVGQRRVYSNFGFGLLAHAIEDAAEIEFGRYLTEAVFEPLGMSTSKLLGGADAAGFGVTSTVSDLARFAGDLLRPALVSQQMHDEATSVQFPGVNGVLPGFGSQRPNDWGLGFEIRDGKTPHWTGSSNSPRTFGHFGQSGTFLWVDPVADLALLVLTDRDFGDWTYPLWPAISDGVLREIGTHLEHHHHHH | not soluble
MIDHTHLRLFQFCDSQFPTGAFSHSFGLETYIQRNIIHDDHTFIAWLKMFLQEQLTYSDGLAMRLVYDALENDDTQKVLHIDKLMFVQNLPKETRVGAKQMGTRMVKLALELYNSPWIAWYHQQMQDKKAKLNPAICFTMLGHHLGVDIETIIDYYLYQNVSSLTQNAVRAIPLGQTAGQKIVTHMIPYIEGTRKQIFELKEADFGMTAPGLELNQMAHENVNVRIFISLEHHHHHH | not soluble
MIDMFHINIPFKKDVIIEMGDCGFVDFAKLAEKTELKIACGNVEFSVVNDQKKVRTDDLYHPWSTIPSSYTDIACKVFDAEPRANVFWGYLQLKASPAKVMQGHNVYGSEDFRLCVEYLLDSLQKAQPELWELLDVGLAEMTRIDCTYSIKCANPDILRQTIKQMGNVSNRYIKPARNSDFETTLYFNRATKANPGAGRSFELCIYTKHDEIAHQLADLKRRARQGDSDRFNRIIDELSKPELQAFAANRLRFEGRAKKRFIQKHVGSANLWQVIRHAEQFEAKNGYRFCEWMFKTLFHDLLESLKGEELELYNDSKIKQLLRDAYSTMTPKLEHHHHHH | soluble
MIDMFPMEKGEEQETYELIVRVFHKYVAPVYSENGVARFLGMLSPEGLSEMNNGKNSFVIVARDQSKIIGMISVINDSHIALFFVSPRYQGKGIGKNILDEAIKNCLNRNPELSAVTVSSSPNSKSFYEEAGFEVIGLEHHHHHH | soluble
MIEFRDVWFWYQEGKTVLKSISFSFSEGTLAIVGPNGSGKTTLVKMLNGLLKPKKGNVLIDGINTKEVSVAELSRIVGYVFQNPDAMFFEENVFKEVAFGPKNLGLNEEEVKKRVRWALEAVGLRGFENRNPFELSGGEKQRLAIACILAMKPKYLVLDEPNTGLDERGLQDLINVIKNLRREGSSIILVTHDIELVLEVADKVLLLKDGELKFFGSTKEFFELDLEGFGLKEPELVKISKDVGINFVRNVEELLKVIGL | soluble
MIEIHKKFLEKDELFQFLKVAKYHHSPQNSFEVFTTLAYTGMRAGELLALKWSDIDFENNTISITKTYYNPNNNKKHYQILTRKTESSIGKITVDPHVIQLLKDYKVNVQDTWKNELYVDNNFVFTDVNGYPLVIKKLQLWIKAILKKTDITNKQISTHSFRYTHYALLIEAGVHIKEIQERLRHKDINTTMNIYAKITNSYKKDASQKFSKLEHHHHHH | not soluble
MIEIKQVKTQDEVNYTFVEKLMHTAFPQEERRDTVQQREYSDNNPRFCNNIILENGNSIGMISYWTMGDFYYIEHFAIDPSLRNGGYGKRVLEMIKKQLKGPIVLEVEEPNDEMSTRRIHFYKRLEFTLHKKPYIQPPYRKGDSGLPMLLMTYGDIDMESDFEKVKKTLYKEVYGQEI | not soluble
MIELEGVPELIDPVMVAAFEGWNDAGDAASTAVAHLDREWKGEVFAALDAEDYYDFQVNRPTVWLDGGVRKITWPTTRLSVVRVGGEKPRDLVLVRGIEPSMRWRSFCNELLAFAHELGVELVVVLGALLGDTPHTRPVPVSGVTSDPDLARTMDLEETKYEGPTGIVGILQEACTHAGVPAVSLWAAVPHYVSQPPNPKATLALLNRLEDLIDVRIPLGELPEDARAWQVGVDQLAAEDSEVAEYVQSLEEARDTAELPEASGEAIAREFERYLRRRDGGGPAAGGHATADGSDGTSYLRDAPGGRTRPPKPPKPEAEDDGPADEGSDDSSED | not soluble
MIEVIFLGTGGIKPTPERNVPSIAIKIGGEIILFDVGEGTLRQMEIARISPMKIKRVFITHFHGDHYLGLPALIQTMSLWKRKDPLHIYGPEGSSTFLQNLLNSGYFAPSFDILVHEISGKSRLKFKEYEVWAFEVSHGVPALGYVFKEKDKRGNFNLKKIKELGLEPGPWMKELERQKIIEINGKIVRLLEVTGPKKRGAKVVYSGDTEPCDEVIEFSRRGTLLIHEATYVNEEDRKDSYHTTIEEACEIWKKSKARKLVLFHRSPRYSFKEYKEKALSICPQAIIPRDFDRIAIEGAGDVLFKIR | soluble
MIEVKPETPDDWWEVEALYDLCFAPGRTALSSYRLRDDVPPVAGLSLVARDSDGTLAGAIRFWPVHVGDLDALLLGPVAVHPTHQGEGLGGFLIQEGLEAGREGGWARVMLVGDAPYYSRFGFARLEGVEMPPPTNPDRVLGLEL | not soluble
MIGMDHLAIGTYEGFLIGYDIDTQPNDPKTTTGCTLRYAYAAHERSIRCIAGSFPILASASVDESIKVYQLDQLQELATLYDLQVPVNSVDIQLQGGLLSGGEDGKLVYYPYGGWSKPKYLKGHKGNVHSVALHPTGQICLSVARDKCLKLWKTNGDCVCSLELPDEAFIVKWTEDGQGWVIATQTSFSVHSLQTGLIQQWEYSTRLVCLCALTNDIFVVGGMDGHLRVGENKPIQVHKVDGGSLVKGIGVGRDGCIYSLSSKGVLEMVAPSRQLEIQNGVVKRYIE | not soluble
MIGPISQINISGGLSEKETSSLISNEELKNIITQLETDISDGSWFHKNYSRMDVEVMPALVIQANNKYPEMNLNLVTSPLDLSIEIKNVIENGVRSSRFIINMGEGGIHFSVIDYKHINGKTSLILFEPANFNSMGPAMLAIRTKTAIERYQLPDCHFSMVEMDIQRSSSECGIFSFALAKKLYIERDSLLKIHEDNIKGILSDGKNPLPHDKLDPYLPVTFYKHTQGKKRLNEYLNTNPQGVGTVVNKKNETIVNRFDNNKSIVDGKELSVSVHKKRIAEYKTLLKV | not soluble
MIGYLRGLAVIVEDVEFARRLYKEGFYGRFLGYDKVKRDEVEKINAPLILGLYEALYLAEKGRLKVMGEDGREVAPEELAALGRERMRNFDEIYKIYKYFRDLGYVVKSGLKFGALFSVYEKGPGIDHAPMVVVFLEPDKGISATDITRGGRLSHSVRKTWTLATVLRQTGEVVLLGFGWARL | soluble
MIHEASIQHGSFGKMVADWPQEKITELWAYLKKHGSRLGGNTGPYTLRQMGADTFILSNDVEAYLRNCKIIEGGKDTKKSHDAATQAFMQWQKESGRSLTEISQIIAFSTGDNRL | not soluble
MIIKDILRENQDFRFRDLSDLKHSPKLCIITCMDSRLIDLLERALGIGRGDAKVIKNAGNIVDDGVIRSAAVAIYALGDNEIIIVGHTDCGMARLDEDLIVSRMRELGVEEEVIENFSIDVLNPVGDEEENVIEGVKRLKSSPLIPESIGVHGLIIDINTGRLKPLYLDE | soluble
MIIKPRIRGFICTTTHPVGCEANVKEQIAYTKAQGPIKNAPKRVLVVGASSGYGLSSRIAAAFGGGASTIGVFFEKEGTEKKPGTAGFYNAAAFEKLAREEGLYAKSLNGDAFSNEAKQKTIDLIKEDLGQVDMVVYSLASPVRKMPETGELIRSALKPIGETYTSTAVDTNKDVIIEASVEPATEEEIKDTVTVMGGEDWELWINALSDAGVLAEGCKTVAYSYIGTELTWPIYWDGALGKAKMDLDRAAKALNEKLGATGGSANVAVLKSVVTQASSAIPVMPLYIAMVFKKMREEGVHEGCMEQIYRMFSQRLYKEDGSAAEVDDMNRLRLDDWELREDIQQHCRELWPQITTENLKELTDYVEYKEEFLKLFGFGVEGVDYEADV | not soluble
MIITDDHMHLYNHLKLKALEQFRDAGGTHVFLVNLLCHHYGIRPTSGKDFREVFERHLSLVEKANKIVKAYAVLGVHPAEITVIGDRIGHEKAAEMMKEALEIAGKYVEEGKAVALKSGRPHYPVSRHVWQLSNDVLRHAFEVAKDVGCAIQLHTESYTKEGMLEIAKMADEVGLKREKVVKHFSPPLIKEFEEIGIFPSVLAGNNNVLKAAEQGNRFTVETDYIDDRKRPGAVLGPKTVPRKVKELIELGYEDIAYKICVENVEKVYGV | not soluble
MIITQGPQFQGKASKRLHVMAKPIGAVCNIDCSYCYYLSKEDLLEYKKGCSPQMDDETLETYIRQYIEGQNTPEIIFSWQGGEPTLLGLDYFKKIVEFQKKYQPEGILISNDLQTNGTLLTDKWCEFLAENNFLVGLSIDGPEMLHNAYRTNKAGRGTFKQVMNAVELLHKHNVKFATLTCVNNLTSRNPLEVYRFLRDVVKSPQMQFIPIVEQKTFRTVAPQTEQIAAQLRQGDKRLIPGNKESIMEPWCVSDEAWGNFLIAVFDEWTQHDLGKVFVQYFEASVETWMGRKNPLCTLGEICGKGLAMEHNGDVFACDHYVYPEYKIGNIHNEELDTLAFSRKQQEFGFAKSKTLTTQCQKCEYKFACHGECPKNRFIKTRDGEPGLNYLCAGWKKFFAHADKSIAYILKMLGNPVQHGKYSDAKMQQVHQNAFPTKF | not soluble
MIKSLKQLAIQAGLEYLGEDVSIQTVAINSNEVRQDCLFVAIVANRDGHEFIPSAIANGAKAILVSKKQGLDIPQVVCGNTIKGLRALAKEYRKSLTMPIISLTGSCGKTSVKEMIVTLLGERKVHFTQGNLNNYLGVPMTILETPHDVDFAVIEAGTNVGGEIKAAADIIQPNIAMITNVGACHLENLKTLDGVMIEKGELLKALPRDGFCIVNLDDERIPNYAKLLECKKISCSMTNPKADILVLDYRATSNSYAFKIRIFSQEYDYQLPNIGKHNLFNSVLAIASVVAVGLEPKDFLQNTQNIKNYKGRFSTEKLSDKLTLIDDTYNASAGAVQAAIEDLAEFDGKKILAISSMRELGDEAENYHRKMGQWLKKANLDKIFLFGEKNLIDYVLAEYSNQNAKYYESKDELNNDLAKILDEYKSQSTKLTVKGARSFKMEEVVKFVKENL | not soluble
